According to the supplement of paper PMC11908140:

B1: library; numbered along this chain (parent)
chain: MRKPRAAVGSGHRKQAASQEGRQKHAKNNSQAKPSACDGLARQPEEVVLQASVSSYHLFRDVAEVTAFRGSLLSWYDQEKRDLPWRRRAEDEMDLDRRAYAVWVSEVMLQQTQVATVINYYTGWMQKWPTLQDLASASLEEVNQLWAGLGYYSRGRRLQEGARKVVEELGGHMPRTAETLQQLLPGVGRYTAGAIASIAFGQATGVVDGNVARVLCRVRAIGADPSSTLVSQQLWGLAQQLVDPARPGDFNQAAMELGATVCTPQRPLCSQCPVESLCRARQRVEQEQLLASGSLSGSPDVEECAPNTGQCHLCLPPSEPWDQTLGVVNFPRKASRKPPREESSATCVLEQPGALGAQILLVQRPNSGLLAGLWEFPSVTWEPSEQLQRKALLQELQRWAGPLPATHLRHLGEVVHTFSHIKLTYQVYGLALEGQTPVTTVPPGARWLTQEEFHTAAVSTAMKKVFRVYQGQQPGTCMGSKRSQVSSPCSRKKPRMGQQVLDNFFRSHISTDAHSLNSAAQ
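Also: cells sorted at 72 h after reporter transfection.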

Variants of: B1
Test: 8OG:A repair function score (normalized; synonymous = 0, nonsense = -1) (normalized log-likelihood score); higher = more repair activity (WT-like)
Conditions: with 8OG:A DNA repair reporter (GFP) in HEK-293 MUTYH KO cells
Procedure, shortened: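 Lentiviral MUTYH cDNA NNN codon-scan libraries were expressed in MUTYH knockout HEK-293 cells with 10 pg/ml doxycycline, and the cells received an 8OG:A GFP repair reporter together with mCherry. At 72 h, viable mCherry+ cells went into GFP+ (repair) or GFP− bins, three replicates per tile, before tile amplicons were sequenced. A repair function score was then built from per-tile Rosace fitness scores, anchored on the synonymous and nonsense distributions. Synonymous medians sat at 0 and nonsense at -1, and variants under 300 counts per million at the start were left out.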
For MRKPRAAVGSGHRKQAASQEGRQKHAKNNSQAKPSACDGLARQPEEVVLQASVSSYHLFRDVAEVTAFRGSLLSWYDQEKRDLPWRRRAEDEMDLDRRAYAVWVSEVMLQQTQVATVINYYTGWMQKWPTLQDLASASLEEVNQLWAGLGYYSRGRRLQEGARKVVEELGGHMPRTAETLQQLLPGVGRYTAGAIASIAFGQATGVVDGNVARVLCRVRAIGADPSSTLVSQQLWGLAQQLVDPARPYDFNQAAMELGATVCTPQRPLCSQCPVESLCRARQRVEQEQLLASGSLSGSPDVEECAPNTGQCHLCLPPSEPWDQTLGVVNFPRKASRKPPREESSATCVLEQPGALGAQILLVQRPNSGLLAGLWEFPSVTWEPSEQLQRKALLQELQRWAGPLPATHLRHLGEVVHTFSHIKLTYQVYGLALEGQTPVTTVPPGARWLTQEEFHTAAVSTAMKKVFRVYQGQQPGTCMGSKRSQVSSPCSRKKPRMGQQVLDNFFRSHISTDAHSLNSAAQ [G248Y], the “8OG:A repair function score” value was -0.996.
For MRKPRAAVGSGHRKQAASQEGRQKHAKNNSQAKPSACDGLARQPEEVVLQASVSSYHLFRDVAEVTAFRGSLLSWYDQEKRDLPWRRRAEDEMDLDRRAYAVWVSEVMLQQTQVATVINYYTGWMQKWPTLQDLASASLEEVNQLWAGLGYYSRGRRLQEGARKVVEELGGHMPRTAETLQQLLPGVGRYTAGAIASIAFGQATGVVDGNVARVLCRVRAIGADPSSTLVSQQLWGLAQQLVDPARPGKFNQAAMELGATVCTPQRPLCSQCPVESLCRARQRVEQEQLLASGSLSGSPDVEECAPNTGQCHLCLPPSEPWDQTLGVVNFPRKASRKPPREESSATCVLEQPGALGAQILLVQRPNSGLLAGLWEFPSVTWEPSEQLQRKALLQELQRWAGPLPATHLRHLGEVVHTFSHIKLTYQVYGLALEGQTPVTTVPPGARWLTQEEFHTAAVSTAMKKVFRVYQGQQPGTCMGSKRSQVSSPCSRKKPRMGQQVLDNFFRSHISTDAHSLNSAAQ [D249K], the “8OG:A repair function score” value was -0.584.
With MRKPRAAVGSGHRKQAASQEGRQKHAKNNSQAKPSACDGLARQPEEVVLQASVSSYHLFRDVAEVTAFRGSLLSWYDQEKRDLPWRRRAEDEMDLDRRAYAVWVSEVMLQQTQVATVINYYTGWMQKWPTLQDLASASLEEVNQLWAGLGYYSRGRRLQEGARKVVEELGGHMPRTAETLQQLLPGVGRYTAGAIASIAFGQATGVVDGNVARVLCRVRAIGADPSSTLVSQQLWGLAQQLVDPARPGFFNQAAMELGATVCTPQRPLCSQCPVESLCRARQRVEQEQLLASGSLSGSPDVEECAPNTGQCHLCLPPSEPWDQTLGVVNFPRKASRKPPREESSATCVLEQPGALGAQILLVQRPNSGLLAGLWEFPSVTWEPSEQLQRKALLQELQRWAGPLPATHLRHLGEVVHTFSHIKLTYQVYGLALEGQTPVTTVPPGARWLTQEEFHTAAVSTAMKKVFRVYQGQQPGTCMGSKRSQVSSPCSRKKPRMGQQVLDNFFRSHISTDAHSLNSAAQ [D249F] the “8OG:A repair function score” value was -0.75.
For MRKPRAAVGSGHRKQAASQEGRQKHAKNNSQAKPSACDGLARQPEEVVLQASVSSYHLFRDVAEVTAFRGSLLSWYDQEKRDLPWRRRAEDEMDLDRRAYAVWVSEVMLQQTQVATVINYYTGWMQKWPTLQDLASASLEEVNQLWAGLGYYSRGRRLQEGARKVVEELGGHMPRTAETLQQLLPGVGRYTAGAIASIAFGQATGVVDGNVARVLCRVRAIGADPSSTLVSQQLWGLAQQLVDPARPGNFNQAAMELGATVCTPQRPLCSQCPVESLCRARQRVEQEQLLASGSLSGSPDVEECAPNTGQCHLCLPPSEPWDQTLGVVNFPRKASRKPPREESSATCVLEQPGALGAQILLVQRPNSGLLAGLWEFPSVTWEPSEQLQRKALLQELQRWAGPLPATHLRHLGEVVHTFSHIKLTYQVYGLALEGQTPVTTVPPGARWLTQEEFHTAAVSTAMKKVFRVYQGQQPGTCMGSKRSQVSSPCSRKKPRMGQQVLDNFFRSHISTDAHSLNSAAQ [D249N], the “8OG:A repair function score” value was -0.673.
MRKPRAAVGSGHRKQAASQEGRQKHAKNNSQAKPSACDGLARQPEEVVLQASVSSYHLFRDVAEVTAFRGSLLSWYDQEKRDLPWRRRAEDEMDLDRRAYAVWVSEVMLQQTQVATVINYYTGWMQKWPTLQDLASASLEEVNQLWAGLGYYSRGRRLQEGARKVVEELGGHMPRTAETLQQLLPGVGRYTAGAIASIAFGQATGVVDGNVARVLCRVRAIGADPSSTLVSQQLWGLAQQLVDPARPGIFNQAAMELGATVCTPQRPLCSQCPVESLCRARQRVEQEQLLASGSLSGSPDVEECAPNTGQCHLCLPPSEPWDQTLGVVNFPRKASRKPPREESSATCVLEQPGALGAQILLVQRPNSGLLAGLWEFPSVTWEPSEQLQRKALLQELQRWAGPLPATHLRHLGEVVHTFSHIKLTYQVYGLALEGQTPVTTVPPGARWLTQEEFHTAAVSTAMKKVFRVYQGQQPGTCMGSKRSQVSSPCSRKKPRMGQQVLDNFFRSHISTDAHSLNSAAQ [D249I] was tested, and the “8OG:A repair function score” value was -0.596.
With MRKPRAAVGSGHRKQAASQEGRQKHAKNNSQAKPSACDGLARQPEEVVLQASVSSYHLFRDVAEVTAFRGSLLSWYDQEKRDLPWRRRAEDEMDLDRRAYAVWVSEVMLQQTQVATVINYYTGWMQKWPTLQDLASASLEEVNQLWAGLGYYSRGRRLQEGARKVVEELGGHMPRTAETLQQLLPGVGRYTAGAIASIAFGQATGVVDGNVARVLCRVRAIGADPSSTLVSQQLWGLAQQLVDPARPGLFNQAAMELGATVCTPQRPLCSQCPVESLCRARQRVEQEQLLASGSLSGSPDVEECAPNTGQCHLCLPPSEPWDQTLGVVNFPRKASRKPPREESSATCVLEQPGALGAQILLVQRPNSGLLAGLWEFPSVTWEPSEQLQRKALLQELQRWAGPLPATHLRHLGEVVHTFSHIKLTYQVYGLALEGQTPVTTVPPGARWLTQEEFHTAAVSTAMKKVFRVYQGQQPGTCMGSKRSQVSSPCSRKKPRMGQQVLDNFFRSHISTDAHSLNSAAQ [D249L] the “8OG:A repair function score” value was -0.649.
MRKPRAAVGSGHRKQAASQEGRQKHAKNNSQAKPSACDGLARQPEEVVLQASVSSYHLFRDVAEVTAFRGSLLSWYDQEKRDLPWRRRAEDEMDLDRRAYAVWVSEVMLQQTQVATVINYYTGWMQKWPTLQDLASASLEEVNQLWAGLGYYSRGRRLQEGARKVVEELGGHMPRTAETLQQLLPGVGRYTAGAIASIAFGQATGVVDGNVARVLCRVRAIGADPSSTLVSQQLWGLAQQLVDPARPGMFNQAAMELGATVCTPQRPLCSQCPVESLCRARQRVEQEQLLASGSLSGSPDVEECAPNTGQCHLCLPPSEPWDQTLGVVNFPRKASRKPPREESSATCVLEQPGALGAQILLVQRPNSGLLAGLWEFPSVTWEPSEQLQRKALLQELQRWAGPLPATHLRHLGEVVHTFSHIKLTYQVYGLALEGQTPVTTVPPGARWLTQEEFHTAAVSTAMKKVFRVYQGQQPGTCMGSKRSQVSSPCSRKKPRMGQQVLDNFFRSHISTDAHSLNSAAQ [D249M] was tested, and the “8OG:A repair function score” value was -0.419.
For MRKPRAAVGSGHRKQAASQEGRQKHAKNNSQAKPSACDGLARQPEEVVLQASVSSYHLFRDVAEVTAFRGSLLSWYDQEKRDLPWRRRAEDEMDLDRRAYAVWVSEVMLQQTQVATVINYYTGWMQKWPTLQDLASASLEEVNQLWAGLGYYSRGRRLQEGARKVVEELGGHMPRTAETLQQLLPGVGRYTAGAIASIAFGQATGVVDGNVARVLCRVRAIGADPSSTLVSQQLWGLAQQLVDPARPGHFNQAAMELGATVCTPQRPLCSQCPVESLCRARQRVEQEQLLASGSLSGSPDVEECAPNTGQCHLCLPPSEPWDQTLGVVNFPRKASRKPPREESSATCVLEQPGALGAQILLVQRPNSGLLAGLWEFPSVTWEPSEQLQRKALLQELQRWAGPLPATHLRHLGEVVHTFSHIKLTYQVYGLALEGQTPVTTVPPGARWLTQEEFHTAAVSTAMKKVFRVYQGQQPGTCMGSKRSQVSSPCSRKKPRMGQQVLDNFFRSHISTDAHSLNSAAQ [D249H], the “8OG:A repair function score” value was -0.28.
For MRKPRAAVGSGHRKQAASQEGRQKHAKNNSQAKPSACDGLARQPEEVVLQASVSSYHLFRDVAEVTAFRGSLLSWYDQEKRDLPWRRRAEDEMDLDRRAYAVWVSEVMLQQTQVATVINYYTGWMQKWPTLQDLASASLEEVNQLWAGLGYYSRGRRLQEGARKVVEELGGHMPRTAETLQQLLPGVGRYTAGAIASIAFGQATGVVDGNVARVLCRVRAIGADPSSTLVSQQLWGLAQQLVDPARPGGFNQAAMELGATVCTPQRPLCSQCPVESLCRARQRVEQEQLLASGSLSGSPDVEECAPNTGQCHLCLPPSEPWDQTLGVVNFPRKASRKPPREESSATCVLEQPGALGAQILLVQRPNSGLLAGLWEFPSVTWEPSEQLQRKALLQELQRWAGPLPATHLRHLGEVVHTFSHIKLTYQVYGLALEGQTPVTTVPPGARWLTQEEFHTAAVSTAMKKVFRVYQGQQPGTCMGSKRSQVSSPCSRKKPRMGQQVLDNFFRSHISTDAHSLNSAAQ [D249G], the “8OG:A repair function score” value was -0.675.
With MRKPRAAVGSGHRKQAASQEGRQKHAKNNSQAKPSACDGLARQPEEVVLQASVSSYHLFRDVAEVTAFRGSLLSWYDQEKRDLPWRRRAEDEMDLDRRAYAVWVSEVMLQQTQVATVINYYTGWMQKWPTLQDLASASLEEVNQLWAGLGYYSRGRRLQEGARKVVEELGGHMPRTAETLQQLLPGVGRYTAGAIASIAFGQATGVVDGNVARVLCRVRAIGADPSSTLVSQQLWGLAQQLVDPARPGEFNQAAMELGATVCTPQRPLCSQCPVESLCRARQRVEQEQLLASGSLSGSPDVEECAPNTGQCHLCLPPSEPWDQTLGVVNFPRKASRKPPREESSATCVLEQPGALGAQILLVQRPNSGLLAGLWEFPSVTWEPSEQLQRKALLQELQRWAGPLPATHLRHLGEVVHTFSHIKLTYQVYGLALEGQTPVTTVPPGARWLTQEEFHTAAVSTAMKKVFRVYQGQQPGTCMGSKRSQVSSPCSRKKPRMGQQVLDNFFRSHISTDAHSLNSAAQ [D249E] the “8OG:A repair function score” value was -0.208.
In the case of MRKPRAAVGSGHRKQAASQEGRQKHAKNNSQAKPSACDGLARQPEEVVLQASVSSYHLFRDVAEVTAFRGSLLSWYDQEKRDLPWRRRAEDEMDLDRRAYAVWVSEVMLQQTQVATVINYYTGWMQKWPTLQDLASASLEEVNQLWAGLGYYSRGRRLQEGARKVVEELGGHMPRTAETLQQLLPGVGRYTAGAIASIAFGQATGVVDGNVARVLCRVRAIGADPSSTLVSQQLWGLAQQLVDPARPGAFNQAAMELGATVCTPQRPLCSQCPVESLCRARQRVEQEQLLASGSLSGSPDVEECAPNTGQCHLCLPPSEPWDQTLGVVNFPRKASRKPPREESSATCVLEQPGALGAQILLVQRPNSGLLAGLWEFPSVTWEPSEQLQRKALLQELQRWAGPLPATHLRHLGEVVHTFSHIKLTYQVYGLALEGQTPVTTVPPGARWLTQEEFHTAAVSTAMKKVFRVYQGQQPGTCMGSKRSQVSSPCSRKKPRMGQQVLDNFFRSHISTDAHSLNSAAQ [D249A], the “8OG:A repair function score” value is reported as -0.31.
MRKPRAAVGSGHRKQAASQEGRQKHAKNNSQAKPSACDGLARQPEEVVLQASVSSYHLFRDVAEVTAFRGSLLSWYDQEKRDLPWRRRAEDEMDLDRRAYAVWVSEVMLQQTQVATVINYYTGWMQKWPTLQDLASASLEEVNQLWAGLGYYSRGRRLQEGARKVVEELGGHMPRTAETLQQLLPGVGRYTAGAIASIAFGQATGVVDGNVARVLCRVRAIGADPSSTLVSQQLWGLAQQLVDPARPGCFNQAAMELGATVCTPQRPLCSQCPVESLCRARQRVEQEQLLASGSLSGSPDVEECAPNTGQCHLCLPPSEPWDQTLGVVNFPRKASRKPPREESSATCVLEQPGALGAQILLVQRPNSGLLAGLWEFPSVTWEPSEQLQRKALLQELQRWAGPLPATHLRHLGEVVHTFSHIKLTYQVYGLALEGQTPVTTVPPGARWLTQEEFHTAAVSTAMKKVFRVYQGQQPGTCMGSKRSQVSSPCSRKKPRMGQQVLDNFFRSHISTDAHSLNSAAQ [D249C] was tested, and the “8OG:A repair function score” value was -0.396.
